Consider six molecules from patent US20110287023A1 (AstraZeneca / MedImmune, published 2011).

The target in assay [1] is T1, HMG1 B Box peptide amino acids 150-183.
T1 peptide: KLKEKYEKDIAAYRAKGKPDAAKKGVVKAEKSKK
Put plainly: ELISA, HMG1 B Box peptide 150-183 coated at 10 ug/ml, antibody titrated, OD 450. The method, then: (§1) The plate was then blocked with 4% milk powder dissolved in PBS at 37° C. for 1 hour. The blocking solution was removed and replaced with human anti-HMG1 antibodies at various concentrations (see FIGS. 5A-B). […] HRP activity was detected with Sureblue HRP substrate (KPL). Plates were read at 450 nm using a Kinetic Microplate Reader (Molecular Devices). […] After washing and blocking with 1% BSA in PBS, the biotinylated peptides were individually added into the avidin coated wells and incubated for 30 min at room temperature. The serial diluted antibody G4, S16 and S6 at the initial concentration at 10 μg/ml were then transferred into the wells followed by adding mouse anti human IgG-HRP conjugate (Pierce). Detection was accomplished by adding 50 μl of tetramethylbenzidine (TMB) substrate (KPL) and the absorbance was read at 450 nm.

The target of assay [2] is T2, HMG2 coated on ELISA plates (Bos taurus (Bovine), UniProt P40673 2-209).
T2 construct: also called HMGB2; HMBG2
T2 sequence: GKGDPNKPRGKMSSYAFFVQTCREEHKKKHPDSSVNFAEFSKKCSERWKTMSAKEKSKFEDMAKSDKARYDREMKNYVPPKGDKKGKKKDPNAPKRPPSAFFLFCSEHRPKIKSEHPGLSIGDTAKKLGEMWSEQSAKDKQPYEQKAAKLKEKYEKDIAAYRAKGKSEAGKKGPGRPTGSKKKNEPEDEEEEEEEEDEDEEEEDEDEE
The experiment in a line: direct ELISA, HMGB2 coated at 5 ug/mL, OD 490. The method, then:
(§2) Binding to HMG1 vs. HMG2: Ultra high-binding ELISA plates (ThermoLab systems, #3855) were coated with either 5 ug/mL of Calf thymus HMGB1 or HMBG2 diluted in 10 mM Phosphate buffered saline (PBS), pH 7.2 and incubate overnight at 4 degrees. The plates were washed twice with Ca and Mg free PBS and 100 microliters of anti-HMGB1 antibody diluted in 10 mM PBS, pH 7.2+1% bovine serum albumin (BSA) to a final concentration of 10 ug/mL was added to each well and the plates were incubated 1 hour at room temperature. The wells were washed three times with 100 μl of PBS, pH 7.2. HRP labeled goat-anti-human IgG Kappa-chain (KPL, #14-10-10) and goat-anti-human IgG Lambda-chain (KPL, #14-10-11) were diluted in 10 mM PBS+1% BSA 1:1000 and 100 μl were added to each well and incubated for 1 hour at room temperature. The wells were then washed three times with 100 μl of PBS, pH 7.2. OPD substrate (Pierce chemical company, #34006) was prepared following the manufacturers instructions and 100 μl of prepared substrate was added to each well and the plates incubated at room temperature in the dark for 20-30 minutes. The reaction was stopped with the addition of 100 μl of 2M H₂SO₄, and the plates read on a plate reader at a wavelength of 490 nm.

The target of assay [3] is T3, HMG1 purified from calf (bovine) thymus (bovine, UniProt P10103 2-215).
T3 construct: also called Calf thymus HMGB1; thymus HMG1
T3 sequence (looked up): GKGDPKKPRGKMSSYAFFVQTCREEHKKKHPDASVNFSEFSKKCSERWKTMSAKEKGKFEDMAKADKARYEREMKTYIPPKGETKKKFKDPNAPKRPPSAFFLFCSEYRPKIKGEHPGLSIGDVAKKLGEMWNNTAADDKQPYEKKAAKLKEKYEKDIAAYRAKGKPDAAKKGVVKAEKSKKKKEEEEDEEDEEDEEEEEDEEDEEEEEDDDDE
The experiment in a line: direct ELISA, calf thymus HMGB1 coated at 5 ug/mL, antibody at 10 ug/mL, anti-human kappa/lambda-HRP, OD 490. As to the method: as §2

Assay [4] has as its target T4, recombinant HMG1 produced in E. coli as a calmodulin binding protein (CBP) fusion (human).
T4 construct: also called rHMG1; rHMGB1
The experiment in a line: BIAcore 3000, mAb amine-coupled to CM5, HMG1 injected, steady-state model. As to the method:
HMG1 Binding Affinity via BIAcore Analysis: All experiments were performed on a BIAcore 3000 instrument (BIAcore, Inc., Piscataway, N.J.). Briefly, each mAb was immobilized to a CM5 sensor chip using a standard amine coupling chemistry. Separately a reference (control) flow cell was also prepared. Two-fold, serial dilutions of HMG1 in instrument buffer were sequentially injected at a slow flow rate over the individual mAb and reference flow-cell surfaces. Following the binding and dissociation of HMG1, the mAbs surfaces were regenerated with a brief pulse of 1M NaCl-50 mM NaOH. At the end of each experiment, the binding curves were evaluated using a steady-state model available through the BIAevaluation software supplied by BIAcore, Inc. (Piscataway, N.J.).

In assay [5] the target is T4, recombinant HMG1 produced in E. coli as …. The experiment in a line: cell-based or functional assay.
Assay [6] addresses T5, HMG1 B Box peptide amino acids 91-169.
T5 construct: also called HMG1 peptide 91-169
T5 peptide: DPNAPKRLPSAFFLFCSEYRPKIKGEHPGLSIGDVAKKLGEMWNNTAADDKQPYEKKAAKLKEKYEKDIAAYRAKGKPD
Put plainly: ELISA, HMG1 B Box peptide 91-169 coated at 10 ug/ml, antibody titrated, OD 450. The method, then: as §1

T4 sequence (P09429 whole entry, the tested form may be a part): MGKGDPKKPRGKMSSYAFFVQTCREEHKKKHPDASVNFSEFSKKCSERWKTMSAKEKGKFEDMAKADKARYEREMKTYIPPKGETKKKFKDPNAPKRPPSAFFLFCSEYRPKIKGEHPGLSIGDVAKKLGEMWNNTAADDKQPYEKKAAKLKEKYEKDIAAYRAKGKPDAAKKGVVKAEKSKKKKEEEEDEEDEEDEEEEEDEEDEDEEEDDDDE

B1: human anti-HMG1 antibody G35 (antibody, IgG1, V domains shown)
VH: EVQLLESGGGLVQPGGSLRLSCAASGFTFSWYKMVWVRQAPGKGLEWVSSIVPSGGITIYADSVKGRFTISRDNSKNTLYLQMNSLRAEDTAVYYCARVQQWLGRPYFDYWGQGTLVTVSS
VL: DIQMTQSPLSLPVTPGEPASISCRSSQSLLHGNGYNYLDWYLQRPGQSPQLLIYSGSNRASGVPDRFSGSGSGTDFTLKISRVEAEDVGVYYCMQSLQSRTFGQGTKVEIK
notes: full length IgG1 made from a human Fab phage clone
B1: the binding result in assay [1] was “no binding (tested: 10 ug/ml (log 1.0))”; in assay [2] it was “no binding (tested: 10 ug/mL (single concentration))”; in assay [3] it was “binds”. The Kd in assay [4] is 242 nM. Also, the “IC50 IL-6” value in assay [5] stood at 0.564 nM.

B2: human anti-HMG1 antibody G9 (antibody, IgG1, V domains shown)
VH: EVQLLESGGGLVQPGGSLRLSCAASGFTFSSYDMFWVRQAPGKGLEWVSRISPSGGYTYYADSVKGRFTISRDNSKNTLYLQMNSLRAEDTAVYYCARLRYFDSRGYAFDIWGQGTMVTVSS
VL: DIQMTQSPGTLSLSPGERATLSCRASQSVRSSYLAWYQQKPGQAPRLLIYGASTRATGIPDRFSGSGSGTDFTLTISRLEPEDFAVYYCQQYGTSRWTFGQGTKVEIK
notes: as for B1
On to B2, for which the binding result in assay [6] is listed as “no binding (tested: 10 ug/ml (log 1.0))”; in assay [1], “no binding (tested: 10 ug/ml (log 1.0))”; in assay [2], “no binding (tested: 10 ug/mL (single concentration))”; in assay [3], “binds”. For the same molecule, the Kd in assay [4] was 125 nM. Moreover, the “IC50 IL-1β” value in assay [5] was determined as 0.211 µg/mL. The “IC50 IL-6” value in assay [5] amounted to 0.246 nM. Also, the “IC50 TNF-α” value in assay [5] is 0.248 µg/mL.

B3: human anti-HMG1 antibody G34 (antibody, IgG1, V domains shown)
VH: EVQLLESGGGLVQPGGSLRLSCAASGFTFSHYMMGWVRQAPGKGLEWVSRISPSGGGTVYADSVKGRFTISRDNSKNTLYLQMNSLRAEDTAVYYCARGGNWNYISYYYYYLDVWGKGTTVTVSS
VL: DIQMTQSPSSLSASVGDRVAITCRASQSIDTYLNWYQQKPGKAPKLLIYAASKLEDGVPSRFSGSGTGTDFTLTIRSLQPEDFASYFCQQSYSSPGITFGPGTKVEIK
notes: as for B1
In the case of B3, the binding result in assay [6] is “no binding (tested: 10 ug/ml (log 1.0))”; in assay [1] it was “no binding (tested: 10 ug/ml (log 1.0))”; in assay [2], “no binding (tested: 10 ug/mL (single concentration))”; in assay [3], “binds”. Besides, the dissociation constant (Kd) in assay [4] was 67 nM. In addition, the “IC50 IL-6” value in assay [5] was found to be 0.858 nM.

B4: human anti-HMG1 antibody G20 (antibody, IgG1, V domains shown)
VH: EVQLLESGGGLVQPGGSLRLSCAASGFTFSWYDMFWVRQAPGKGLEWVSWISPSGGYTKYADSVKGRFTISRDNSKNTLYLQMNSLRAEDTAMYYCARSGLDYYDSSGYLDAFDIWGQGTMVTVSS
VL: DIQMTQSPSSVSASVGDRVTITCRASQDVSIWLAWYQQKPGKAPKLLIFGASRLQSGVPSRFSGSRSGADFTLTIDSVQPEDFASYYCQQADSFPLTFGGGTKVEIK
notes: as for B1
For the molecule B4, in assay [6], the binding result is “no binding (tested: 10 ug/ml (log 1.0))”. Also, the binding result in assay [1] is on record as “no binding (tested: 10 ug/ml (log 1.0))”. The binding result in assay [2] is reported as “no binding (tested: 10 ug/mL (single concentration))”. For the same molecule, the binding result in assay [3] is on record as “binds”. In assay [4], the dissociation constant (Kd) is 114 nM. Also, in assay [5], the “IC50 IL-1β” value was determined as 0.4 µg/mL, the “IC50 IL-6” value is 0.652 nM, the “IC50 NO” value was 20.4 µg/mL and the “IC50 TNF-α” value is 0.598 µg/mL.

B5: human anti-HMG1 antibody G12 (antibody, IgG1, V domains shown)
VH: EVQLLESGGGLVQPGGSLRLSCAASGFTFSYYMMTWVRQAPGKGLEWVSSISPSGGYTIYADSAKGRFTISRDNSKNTLYLQMNSLRAEDTAVYYCARALSTGSFWDYWGQGTLVTVSS
VL: DIQMTQSPGTLSLSPGERATLSCRASESLTSTYVAWYQHKPGQAPRLLIHGGSTRATGIPVRFSGSGSGTDFTLTIATLEPEDFAVYYCQQYGSSPYTFGQGTKLEIK
notes: as for B1
As for B5, the binding result in assay [6] is “no binding (tested: 10 ug/ml (log 1.0))”; in assay [1], “no binding (tested: 10 ug/ml (log 1.0))”; in assay [2], “no binding (tested: 10 ug/mL (single concentration))”; in assay [3] it was “binds”. Also, the dissociation constant Kd in assay [4] came to 73 nM. Moreover, the “IC50 IL-1β” value in assay [5] stood at 5.91 µg/mL. Also, the “IC50 IL-6” value in assay [5] was determined as 1.12 nM. Besides, the “IC50 IL-12” value in assay [5] worked out at 2.79 µg/mL. For the same molecule, in assay [5], the “IC50 TNF-α” value stood at 0.796 µg/mL.

B6: human anti-HMG1 antibody S14 (antibody, IgG1, V domains shown)
VH: EVQLLESGGGLVQPGGSLRLSCAASGFTFSWYETGWVRQAPGKGLEWVSGISPSGGYTQYADSVKGRFTISRDNSKNTLYLQMNSLRAEDTAVYYCARSGVGATKIFDYWGQGTLVTVSS
VL: DIQMTQSPSSLSASVGDRVTIICRANERINTYLNWYQQKPGKAPKLLISGTSSLESGVPSRFSGSGSGTEFTLSISSLQPEDFASYYCQQSYSSPYTFGQGTNLEIR
notes: as for B1
Regarding B6, the binding result in assay [6] is recorded as “no binding (tested: 10 ug/ml (log 1.0))”; in assay [1], “no binding (tested: 10 ug/ml (log 1.0))”; in assay [2] it was “no binding (tested: 10 ug/mL (single concentration))”; in assay [3], “binds”. The Kd in assay [4] amounted to 205 nM. For the same molecule, the “IC50 IL-1β” value in assay [5] is 0.0578 µg/mL. Also, in assay [5], the “IC50 IL-6” value was found to be 0.191 nM. Besides, the “IC50 TNF-α” value in assay [5] came out at 0.0662 µg/mL.
